Laboratory results taken from patent US20210170043A1, “DC-SIGN ANTIBODY CONJUGATES COMPRISING STING AGONISTS” (NOVARTIS AG, priority 2018, published 2021).
Where two headings read alike, the source gives them in different places.

Legend:
[1] = biological target: T1, DC-SIGN Carbohydrate Recognition Domain (CRD) (Homo sapiens, UniProt Q9NNX6); experiment: Biacore affinity to DC-SIGN Carbohydrate Recognition Domain; format: binding; conditions: 25° C.
T1 construct: The DC-SIGN CRD was captured via the His tag; AviTag (C)
T1 sequence (Q9NNX6 with tags, fused parts or gaps): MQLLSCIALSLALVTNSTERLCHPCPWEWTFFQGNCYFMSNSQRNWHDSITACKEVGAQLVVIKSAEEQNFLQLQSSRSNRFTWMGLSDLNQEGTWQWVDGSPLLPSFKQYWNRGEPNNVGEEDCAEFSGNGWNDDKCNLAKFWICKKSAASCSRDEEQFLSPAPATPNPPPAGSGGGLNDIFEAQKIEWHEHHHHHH
Procedure: The affinity of various antibodies to DC-SIGN Carbohydrate Recognition Domain (CRD) was determined using Biacore. Purified IgGs for the parental antibodies were titrated to determine Kd values for binding to purified antigen domain by two methods described below.
In method 1 DC-SIGN was used as the ligand (surface attached) and the antibody the analyte (injected at different concentrations). The DC-SIGN CRD was captured via the His tag on a CM5 chip that was prepared by immobilizing 12000RU NeutrAvidin followed by capturing ˜550RU of Tris-NTA biotin. Fresh DC-SIGN was used for each dose. Each cycle consisted of charging the surface with a 120s pulse of 5 mM NiCl2, capturing the same amount of DC-SIGN, injecting the antibody at the desired concentration, and stripping the Ni^2+ with pulses of 350 mM EDTA and 500 mM imidazole to remove all DC-SIGN. Antibodies were injected at concentrations between 250 and 31 nM for 180s and allowed to dissociate for 600s. The reverse orientation was used in method 2-antibody the ligand and DC-SIGN the analyte. A CM5 chip was first prepared with mouse anti-human IgG Fc and used to capture the antibodies. […] Kinetic parameters were calculated using the 8K analysis software.

[2] = tested on: cynomolgus monkey DC-SIGN; experiment: FACS binding to CHO cells stably expressing cynomolgus monkey DC-SIGN; conditions: FACS MFI, average
Sequence of cynomolgus monkey DC-SIGN (as listed by the source): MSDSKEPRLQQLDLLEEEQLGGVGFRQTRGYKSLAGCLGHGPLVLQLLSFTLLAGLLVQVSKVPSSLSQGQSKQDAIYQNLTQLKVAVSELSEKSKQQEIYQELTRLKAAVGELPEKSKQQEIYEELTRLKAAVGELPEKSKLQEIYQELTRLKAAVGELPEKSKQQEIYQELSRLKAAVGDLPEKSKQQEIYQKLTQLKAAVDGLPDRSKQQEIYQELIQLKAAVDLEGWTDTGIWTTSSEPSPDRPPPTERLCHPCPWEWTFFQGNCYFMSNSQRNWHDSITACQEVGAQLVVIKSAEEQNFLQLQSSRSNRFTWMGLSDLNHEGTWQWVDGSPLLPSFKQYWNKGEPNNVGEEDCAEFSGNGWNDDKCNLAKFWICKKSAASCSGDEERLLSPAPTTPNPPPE
Procedure: (§1) The affinity of various antibodies and ADCs to DC-SIGN and its species orthologues was determined using FACS. Purified IgGs were titrated to determine EC50 values for binding to cell surface expressed DC-SIGN.
(§2) For this purpose, human DC-SIGN expressing or cynomolgus monkey DC-SIGN expressing stable CHO cell lines or K562 expressing DC-SIGN or K562 expressing L-SIGN cell lines were checked for density and viability using VICELL (Beckman Coulter), and washed once with 4° C. PBS. Cells were stained with DAPI (0.5 ug/mL) diluted in PBS for 30 min on ice. Cells were diluted into 4° C. FACS buffer (PBS, 10 mM EDTA, 2% FBS). 125 μl of cells were seeded (10,000 cells/well) into 96-well v-bottom plates (Nunc cat#442587) and centrifuged for 4 min at 1500 rpm at 4° C. Supernatant was removed. Cells were incubated with a serial dilution of each anti-DC-SIGN antibody in FACS buffer at concentrations ranging across several logs with a top concentration no higher than 50 μg/mL for 60 minutes at 4° C. Following incubation, cells were spun down (1500 rpm, 4 min, 4° C.) and washed two times with FACS buffer. A fluorophore-conjugated anti-hFc gamma-AF-647 (Southern Biotechnology) detection antibody was added at 1:400 and samples were incubated for 1 h on ice in the dark. Following incubation, FACS buffer was added, and the cells were spun down (1500 rpm, 4 min, 4° C.) and washed two times with FACS buffer. After the final wash, cells were resuspended in Fixative Buffer (Biolegend, 420801) and 90 μl of FACS buffer followed by readout on the flow cytometry machine (BD LSRFortessa Cell Analyzer; Cat #647177). Geometric Mean fluorescence intensity (MFI) of live, single cells was calculated in Flowjo 10.4.2 and exported into Graphpad Prism7 for EC50 determination.
In a similar experiment the antibodies were tested for cross-reactivity using engineered isogenic matched cell line.

[3] = biological target: T2, human DC-SIGN (Homo sapiens, UniProt Q9NNX6); experiment: FACS binding to K562 cells expressing human DC-SIGN; conditions: FACS MFI
T2 construct: expressed in transfected cells
T2 sequence (Q9NNX6 1-404): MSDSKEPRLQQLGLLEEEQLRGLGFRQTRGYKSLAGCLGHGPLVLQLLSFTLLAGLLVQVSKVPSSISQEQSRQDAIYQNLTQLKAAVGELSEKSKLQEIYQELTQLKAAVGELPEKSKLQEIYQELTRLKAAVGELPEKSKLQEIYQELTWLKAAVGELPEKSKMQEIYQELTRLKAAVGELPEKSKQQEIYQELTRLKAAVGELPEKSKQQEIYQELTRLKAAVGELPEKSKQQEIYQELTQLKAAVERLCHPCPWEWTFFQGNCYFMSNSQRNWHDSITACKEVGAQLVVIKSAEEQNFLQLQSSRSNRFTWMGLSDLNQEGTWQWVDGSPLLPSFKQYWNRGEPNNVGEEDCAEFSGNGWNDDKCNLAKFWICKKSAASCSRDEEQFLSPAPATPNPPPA
Procedure: as §1, §2

[4] = biological target: T2, human DC-SIGN; experiment: FACS binding to CHO cells stably expressing human DC-SIGN; conditions: FACS MFI, average
Procedure: as §1, §2

- Kd ([1]; method 1: DC-SIGN CRD captured on chip, antibody as analyte, read-out: high density DC-SIGN CRD on chip): 0.111 µM
- Kd ([1]; method 2: antibody captured on chip, DC-SIGN CRD as analyte, read-out: Ab on chip): 47.6 µM
- cyno DC-SIGN CHO EC50 (ug/mL) ave. [2]: 15.69 µg/mL
- human DC-SIGN K562 EC50 [3]: >10 µg/mL
- human DC-SIGN CHO EC50 (ug/mL) ave. [4]: 0.15 µg/mL
B1: 892D15: anti-DC-SIGN antibody; All antibodies except 892D15 and 942K11 bind human and cynomolgus monkey DC-SIGN similarly; headings print 952D15 (antibody)
heavy: QVTLRESGPALVKPTQTLTLTCTFSGFSPSTSGMSVSWIRQPPGKALEWLALIDWDDDKYFSTSLKTRLTISKDTSKNQVVLTMTNMDPVDTATYYCARAHSGSYFDYWGQGTLVTVSSASTKGPSVFPLAPSSKSTSGGTAALGCLVKDYFPCPVTVSWNSGALTSGVHTFPAVLQSSGLYSLSSVVTVPSSSLGTQTYICNVNHKPSNTKVDKRVEPKSCDKTHTCPPCPAPELLGGPSVFLFPPKPKDTLMISRTPEVTCVVVAVSHEDPEVKFNWYVDGVEVHNAKTKPREEQYNSTYRVVSVLTVLHQDWLNGKEYKCKVSNKALAAPIEKTISKAKGQPREPQVYTLPPSREEMTKNQVSLTCLVKGFYPCDIAVEWESNGQPENNYKTTPPVLDSDGSFFLYSKLTVDKSRWQQGNVFSCSVMHEALHNHYTQKSLSLSPGK
light: DIQMTQSPSTLSASVGDRVTITCRASQSISNWLAWYQQKPGKAPKLLIYKASSLESGVPSRFSGSGSGTEFTLTISSLQPDDFATYYCQQFNSYWTFGQGTKVEIKRTVAAPSVFIFPPSDEQLKSGTASVVCLLNNFYPREAKVQWKVDNALQSGNSQESVTEQDSKDSTYSLSSTLTLSKADYEKHKVYACEVTHQGLSSPVTKSFNRGEC
